Earlier results, collected in patent US20080279771A1, “Novel Imaging Agents for Cancer” (GE HEALTHCARE LIMITED, priority 2005, published 2008).

Target: neuropilin-1 receptor (NP-1) (Homo sapiens, UniProt O14786)
Settings: NP-1 on tumour cells; read-out: Kd of binding of SEM-3A to NP-1

Sequence of neuropilin-1 receptor (NP-1) (O14786 22-923): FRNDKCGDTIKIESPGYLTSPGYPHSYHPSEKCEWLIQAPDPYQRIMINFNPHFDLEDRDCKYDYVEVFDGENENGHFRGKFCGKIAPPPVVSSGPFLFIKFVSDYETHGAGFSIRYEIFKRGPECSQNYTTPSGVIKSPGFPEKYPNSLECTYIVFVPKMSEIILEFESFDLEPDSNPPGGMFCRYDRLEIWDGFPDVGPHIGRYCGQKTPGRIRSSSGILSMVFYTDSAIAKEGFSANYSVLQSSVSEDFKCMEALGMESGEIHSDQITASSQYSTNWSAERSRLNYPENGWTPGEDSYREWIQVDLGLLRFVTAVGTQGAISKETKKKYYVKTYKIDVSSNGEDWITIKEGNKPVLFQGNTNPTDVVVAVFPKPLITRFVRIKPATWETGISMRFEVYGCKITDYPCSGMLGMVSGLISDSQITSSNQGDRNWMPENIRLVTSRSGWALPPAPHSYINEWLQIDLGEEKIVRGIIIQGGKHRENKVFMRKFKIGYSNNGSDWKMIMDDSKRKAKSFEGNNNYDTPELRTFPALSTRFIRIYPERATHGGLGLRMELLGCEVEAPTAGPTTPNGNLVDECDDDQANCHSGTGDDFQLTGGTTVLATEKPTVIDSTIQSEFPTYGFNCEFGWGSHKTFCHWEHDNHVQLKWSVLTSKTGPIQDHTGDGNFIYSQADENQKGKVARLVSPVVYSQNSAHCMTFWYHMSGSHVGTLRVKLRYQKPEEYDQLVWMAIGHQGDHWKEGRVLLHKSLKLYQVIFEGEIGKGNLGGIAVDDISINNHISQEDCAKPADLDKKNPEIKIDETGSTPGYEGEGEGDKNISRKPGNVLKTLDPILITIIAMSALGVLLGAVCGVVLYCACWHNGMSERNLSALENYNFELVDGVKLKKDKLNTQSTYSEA

Kd: ~0.28 nM
B1: SEM-3A: Semaphorin-3A, biological peptide that binds the neuropilin-1 receptor; human precursor form consists of 771 amino acids (protein, UniProt Q14563 21-771, looked up)
Semaphorin-3A: NYQNGKNNVPRLKLSYKEMLESNNVITFNGLANSSSYHTFLLDEERSRLYVGAKDHIFSFDLVNIKDFQKIVWPVSYTRRDECKWAGKDILKECANFIKVLKAYNQTHLYACGTGAFHPICTYIEIGHHPEDNIFKLENSHFENGRGKSPYDPKLLTASLLIDGELYSGTAADFMGRDFAIFRTLGHHHPIRTEQHDSRWLNDPKFISAHLISESDNPEDDKVYFFFRENAIDGEHSGKATHARIGQICKNDFGGHRSLVNKWTTFLKARLICSVPGPNGIDTHFDELQDVFLMNFKDPKNPVVYGVFTTSSNIFKGSAVCMYSMSDVRRVFLGPYAHRDGPNYQWVPYQGRVPYPRPGTCPSKTFGGFDSTKDLPDDVITFARSHPAMYNPVFPMNNRPIVIKTDVNYQFTQIVVDRVDAEDGQYDVMFIGTDVGTVLKVVSIPKETWYDLEEVLLEEMTVFREPTAISAMELSTKQQQLYIGSTAGVAQLPLHRCDIYGKACAECCLARDPYCAWDGSACSRYFPTAKRRTRRQDIRNGDPLTHCSDLHHDNHHGHSPEERIIYGVENSSTFLECSPKSQRALVYWQFQRRNEERKEEIRVDDHIIRTDQGLLLRSLQQKDSGNYLCHAVEHGFIQTLLKVTLEVIDTEHLEELLHKDDDGDGSKTKEMSNSMTPSQKVWYRDFMQLINHPNLNTMDEFCEQVWKRDRKQRRQRPGHTPGNSNKWKHLQENKKGRNRRTHEFERAPRSV
